Assay results reported in PMC6458161 (2019).
Each block holds one compound with its values, some of them ahead of it.

What was measured:
[1] = tested on: GCDNA (DNA, duplex) GCGCGCGCGC; assay: ITC; conditions: Hepes buffer, 25 °C; 200 µM Net titrated into 10 µM DNA (strand concentration)
[2] = tested on: protamine (sulfate salt) (salmon); assay: ITC; conditions: ITC in Hepes buffer, 25 C (salt and pH not given in the material), short duplexes 10 uM (strand concentration), protamine 100 uM
[3] = tested on: GCDNA (DNA, duplex) GCGCGCGCGC; assay: ITC, one set of sites fit; conditions: Na+ 100 mM (from the 10 mM Hepes/100 mM NaCl UV and gel buffer; the ITC buffer is only given as Hepes buffer), 25 °C, 500 µM EtBr titrated into 10 µM DNA (strand concentration)
[4] = tested on: ATDNA (DNA, duplex) GCAAATTTGC; assay: ITC, one set of sites fit; conditions: Na+ 100 mM (from the 10 mM Hepes/100 mM NaCl UV and gel buffer; the ITC buffer is only given as Hepes buffer), 25 °C, 200 µM EtBr titrated into 10 µM DNA (strand concentration)
[5] = 20 uM ethidium bromide (EtBr-bound DNA)

binding [1]: no
Compound: Cn1cc(NC(=O)c2cc(NC(=O)CN=C(N)N)cn2C)cc1C(=O)NCCC(=N)N

Compound: GCGCGCGCGC (double strand) [GCDNA]
Ka [2, 5]: 4.5e+06 M⁻¹ | Ka ([2]; 20 uM netropsin): 4.5e+07 M⁻¹ | Ka ([2]; no drug): 3.4e+07 M⁻¹

Compound: CTDNA (calf thymus DNA)
Ka ([2]; 60 uM ethidium bromide (EtBr-bound DNA)): 6.36e+07 M⁻¹ | Ka ([2]; 60 uM netropsin (Net-bound DNA)): 5.54e+07 M⁻¹ | Ka ([2]; no drug, CTDNA titrated into protamine): 550000 M⁻¹

Compound: GCAAATTTGC (double strand) [ATDNA]
Ka [2, 5]: 3.9e+06 M⁻¹ | Ka ([2]; 20 uM netropsin (Net-bound DNA)): 1.89e+08 M⁻¹ | Ka ([2]; no drug): 1.4e+08 M⁻¹

KA [3]: 145000 M⁻¹ | KA [4]: 165000 M⁻¹
Compound: CC[n+]1c(-c2ccccc2)c2cc(N)ccc2c2ccc(N)cc21
